The target in assay [1] is human epidermal growth factor receptor (EGFR), full-length wild type (human) (UniProt P00533). Briefly: cell-based or functional assay.
For assay [2], the target named is ΔEGFR, extracellular-deleted mutant human EGFR (EGFRvIII) (human) (UniProt P00533). Briefly: cell-based or functional assay.

The substance “N757 (Nneu K757M, ATP-binding site mutant of rat cellular p185) (from UniProt P06494 23-1257) (receptor)” registered an EGF-induced down-regulation of cell-surface EGFR in cells co-expressing EGFR and kinase deficient Neu (flow cytometry) in assay [1] of 20 to 25%.

As to “N691 stop (cytoplasmic domain deleted rat cellular p185) (from UniProt P06494 23-690) (receptor)”, the EGF-induced down-regulation of cell-surface EGFR in cells co-expressing EGFR and kinase deficient Neu (flow cytometry) in assay [1] fell in the range of 20 to 25%.

In assay [1], “wildtype rat cellular p185 (Nneu) (from UniProt P06494 23-1257) (receptor)” yielded a co-downregulation of cellular p185 with EGFR upon EGF treatment, M1 cells (flow cytometry) of 20% and a half life of WT cellular p185 after EGF treatment (pulse-chase, densitometry) of 3 h.

“T691 stop neu (ectodomain-derived, carboxyl-terminal deletion mutant of the rat p185neu oncogene) (from UniProt P06494 23-654) (receptor)”: in assay [1], the inhibition of anchorage-independent growth by T691 stop neu in U87MG parental cells lacking ΔEGFR was determined as 75.2%; the radiation-induced apoptosis (DAPI), U87/T691 cells, 72 h after gamma-irradiation is 20%; the radiation-induced apoptosis (DAPI), U87/T691 cells, prolonged serum deprivation combined with radiation came out at 33%. In assay [2], this substance yielded a phosphorylation content of immunoprecipitated p155 ΔEGFR monomers (mAb Δ124 immunoprecipitation, PY-20 blot, scanning densitometry) of 33.7%.
